Common to all, as to test: cell-based or functional assay
Experiment [1] deals with T1, human amylin 3(a) receptor (human calcitonin receptor + RAMP-3) (human) (UniProt P30988).
T1 sequence (looked up) 1: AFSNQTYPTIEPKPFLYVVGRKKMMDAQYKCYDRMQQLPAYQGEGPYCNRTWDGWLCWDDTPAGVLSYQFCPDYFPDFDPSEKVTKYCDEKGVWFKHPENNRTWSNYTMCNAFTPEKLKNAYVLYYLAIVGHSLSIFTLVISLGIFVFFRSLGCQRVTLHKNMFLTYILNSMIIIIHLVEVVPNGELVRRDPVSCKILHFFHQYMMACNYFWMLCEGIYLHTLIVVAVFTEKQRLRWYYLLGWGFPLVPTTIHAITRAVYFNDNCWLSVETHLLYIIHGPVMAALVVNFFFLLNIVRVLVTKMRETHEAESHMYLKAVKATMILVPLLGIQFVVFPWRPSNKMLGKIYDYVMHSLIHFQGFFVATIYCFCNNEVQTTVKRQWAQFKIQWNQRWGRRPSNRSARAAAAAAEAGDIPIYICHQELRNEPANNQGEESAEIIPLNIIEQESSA
T1 sequence (looked up) 2: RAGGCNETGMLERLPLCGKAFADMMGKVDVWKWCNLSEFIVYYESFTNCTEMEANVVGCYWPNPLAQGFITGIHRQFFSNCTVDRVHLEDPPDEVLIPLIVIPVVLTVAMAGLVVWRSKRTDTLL

The target in experiment [2] is T2, human calcitonin (a) receptor (human) (UniProt P30988).
T2 sequence (looked up): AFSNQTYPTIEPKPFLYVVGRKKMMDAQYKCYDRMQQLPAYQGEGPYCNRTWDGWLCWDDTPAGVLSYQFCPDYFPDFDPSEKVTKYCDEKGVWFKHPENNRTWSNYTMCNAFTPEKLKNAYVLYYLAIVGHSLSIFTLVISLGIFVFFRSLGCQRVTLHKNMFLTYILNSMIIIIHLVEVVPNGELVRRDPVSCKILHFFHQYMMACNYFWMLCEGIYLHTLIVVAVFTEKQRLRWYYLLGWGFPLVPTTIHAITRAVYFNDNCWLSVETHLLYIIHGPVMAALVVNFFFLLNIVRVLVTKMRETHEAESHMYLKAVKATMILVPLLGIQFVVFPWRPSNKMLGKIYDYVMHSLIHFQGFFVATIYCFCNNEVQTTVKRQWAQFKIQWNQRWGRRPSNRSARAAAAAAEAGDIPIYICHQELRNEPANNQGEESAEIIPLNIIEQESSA

In experiment [3] the target is T3, human amylin 3(a) receptor (human calcitonin receptor + RAMP-3) (human, UniProt P30988 25-474; O60896 24-148).
T3 sequence (looked up) 1: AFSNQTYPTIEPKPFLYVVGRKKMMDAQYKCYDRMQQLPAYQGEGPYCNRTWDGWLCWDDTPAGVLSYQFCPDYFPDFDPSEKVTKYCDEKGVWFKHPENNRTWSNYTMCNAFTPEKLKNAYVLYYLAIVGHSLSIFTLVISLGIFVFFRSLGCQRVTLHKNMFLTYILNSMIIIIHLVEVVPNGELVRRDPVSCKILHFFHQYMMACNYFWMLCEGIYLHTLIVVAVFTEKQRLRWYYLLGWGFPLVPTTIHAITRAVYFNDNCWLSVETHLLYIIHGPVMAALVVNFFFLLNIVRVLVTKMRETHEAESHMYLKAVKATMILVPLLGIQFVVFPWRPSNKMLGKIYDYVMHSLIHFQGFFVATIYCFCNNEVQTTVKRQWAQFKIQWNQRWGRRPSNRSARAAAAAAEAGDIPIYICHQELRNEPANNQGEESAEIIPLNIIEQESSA
T3 sequence (looked up) 2: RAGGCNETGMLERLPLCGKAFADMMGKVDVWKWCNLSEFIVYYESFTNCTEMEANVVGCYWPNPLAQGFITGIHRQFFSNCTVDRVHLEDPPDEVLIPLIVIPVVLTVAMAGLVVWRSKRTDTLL

Experiment [4] deals with T4, rat amylin 3(a) receptor (rat calcitonin(a) receptor + rat RAMP3) (rat, UniProt P32214 25-516; Q9JJ73 23-147).
T4 sequence (looked up) 1: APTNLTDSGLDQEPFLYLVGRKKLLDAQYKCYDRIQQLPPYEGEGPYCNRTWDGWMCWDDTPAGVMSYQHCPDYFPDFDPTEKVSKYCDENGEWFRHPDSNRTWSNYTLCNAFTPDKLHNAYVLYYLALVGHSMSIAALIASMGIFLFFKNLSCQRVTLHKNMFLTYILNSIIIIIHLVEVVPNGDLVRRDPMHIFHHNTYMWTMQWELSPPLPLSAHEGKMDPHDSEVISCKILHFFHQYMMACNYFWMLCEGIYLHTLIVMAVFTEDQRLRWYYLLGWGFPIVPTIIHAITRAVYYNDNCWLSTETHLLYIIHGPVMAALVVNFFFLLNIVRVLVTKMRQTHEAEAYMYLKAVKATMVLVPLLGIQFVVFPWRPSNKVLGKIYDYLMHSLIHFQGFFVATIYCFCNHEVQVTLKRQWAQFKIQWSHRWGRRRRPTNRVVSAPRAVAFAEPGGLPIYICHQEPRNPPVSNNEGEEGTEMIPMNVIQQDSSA
T4 sequence (looked up) 2: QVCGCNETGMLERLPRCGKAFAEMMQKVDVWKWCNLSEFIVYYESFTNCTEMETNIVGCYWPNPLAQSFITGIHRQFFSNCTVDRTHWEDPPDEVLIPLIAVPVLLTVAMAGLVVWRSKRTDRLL

For experiment [5], the target named is T5, human calcitonin (a) receptor (human, UniProt P30988 25-474).
T5 sequence (looked up): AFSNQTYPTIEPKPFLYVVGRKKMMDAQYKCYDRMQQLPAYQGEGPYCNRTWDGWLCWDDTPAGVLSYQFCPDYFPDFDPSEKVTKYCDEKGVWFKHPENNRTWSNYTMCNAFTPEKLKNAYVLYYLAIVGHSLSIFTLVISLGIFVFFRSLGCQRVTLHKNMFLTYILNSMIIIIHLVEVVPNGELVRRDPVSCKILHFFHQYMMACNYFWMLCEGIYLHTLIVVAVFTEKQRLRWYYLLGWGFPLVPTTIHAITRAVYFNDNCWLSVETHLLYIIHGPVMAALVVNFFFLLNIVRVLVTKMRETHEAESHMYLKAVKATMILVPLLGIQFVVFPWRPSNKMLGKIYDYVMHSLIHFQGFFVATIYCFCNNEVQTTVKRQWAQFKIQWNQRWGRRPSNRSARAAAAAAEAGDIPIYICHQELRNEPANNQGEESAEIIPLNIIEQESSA

The target in experiment [6] is T6, rat calcitonin (a) receptor (rat, UniProt P32214 25-516).
T6 sequence (looked up): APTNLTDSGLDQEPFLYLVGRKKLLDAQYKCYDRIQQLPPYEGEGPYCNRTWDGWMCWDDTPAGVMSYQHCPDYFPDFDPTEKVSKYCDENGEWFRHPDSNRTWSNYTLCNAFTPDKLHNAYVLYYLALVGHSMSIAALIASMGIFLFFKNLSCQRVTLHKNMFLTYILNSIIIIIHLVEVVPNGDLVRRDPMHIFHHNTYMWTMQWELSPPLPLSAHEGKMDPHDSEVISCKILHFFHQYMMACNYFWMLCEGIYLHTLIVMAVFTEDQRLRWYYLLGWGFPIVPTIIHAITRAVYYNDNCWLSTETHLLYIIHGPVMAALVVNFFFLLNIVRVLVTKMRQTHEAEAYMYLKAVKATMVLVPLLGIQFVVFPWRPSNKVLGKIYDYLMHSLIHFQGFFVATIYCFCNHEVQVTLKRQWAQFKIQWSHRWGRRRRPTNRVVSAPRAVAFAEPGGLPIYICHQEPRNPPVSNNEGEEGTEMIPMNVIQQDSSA

Experimental findings from US20130005646A1 (Novo Nordisk, published 2013) are described below.

Starred links: 1 amine or outer side, 2 acyl side, 3 side chain; linkers in the order of their positions; H or OH if unused. Positions of bridges follow the written chain, without caps; N, C: chain ends. *: point of attachment. C20 diacid = O=C(O)CCCCCCCCCCCCCCCCCCC(=O)*; γGlu = O=C(O)[C@H](CCC(=O)[*:2])N[*:1]

B1: N-alpha-(19-carboxynonadecanoyl)-Glu-Glu-Arg-[Glu1,Pro37]-pramlintide (peptide)
peptide: {C20 diacid}-EERECNTATCATQRLANFLVHSSNNFGPILPPTNVGSNTP-NH2
modifications: disulfide 5-10
SMILES: CC[C@H](C)[C@H](NC(=O)[C@@H]1CCCN1C(=O)CNC(=O)[C@H](Cc1ccccc1)NC(=O)[C@H](CC(N)=O)NC(=O)[C@H](CC(N)=O)NC(=O)[C@H](CO)NC(=O)[C@H](CO)NC(=O)[C@H](Cc1c[nH]cn1)NC(=O)[C@@H](NC(=O)[C@H](CC(C)C)NC(=O)[C@H](Cc1ccccc1)NC(=O)[C@H](CC(N)=O)NC(=O)[C@H](C)NC(=O)[C@H](CC(C)C)NC(=O)[C@H](CCCNC(=N)N)NC(=O)[C@H](CCC(N)=O)NC(=O)[C@@H](NC(=O)[C@H](C)NC(=O)[C@@H]1CSSC[C@H](NC(=O)[C@H](CCC(=O)O)NC(=O)[C@H](CCCNC(=N)N)NC(=O)[C@H](CCC(=O)O)NC(=O)[C@H](CCC(=O)O)NC(=O)CCCCCCCCCCCCCCCCCCC(=O)O)C(=O)N[C@@H](CC(N)=O)C(=O)N[C@@H]([C@@H](C)O)C(=O)N[C@@H](C)C(=O)N[C@@H]([C@@H](C)O)C(=O)N1)[C@@H](C)O)C(C)C)C(=O)N[C@@H](CC(C)C)C(=O)N1CCC[C@H]1C(=O)N1CCC[C@H]1C(=O)N[C@H](C(=O)N[C@@H](CC(N)=O)C(=O)N[C@H](C(=O)NCC(=O)N[C@@H](CO)C(=O)N[C@@H](CC(N)=O)C(=O)N[C@H](C(=O)N1CCC[C@H]1C(N)=O)[C@@H](C)O)C(C)C)[C@@H](C)O
Consider B1, for which the Amylin receptor human EC50 in experiment [1] turned out to be 45 pM. The CTa receptor human EC50 in experiment [2] is 61.5 pM.

B2: N-alpha-[(S)-4-Carboxy-4-(19-carboxynonadecanoylamino)butyryl]-His-His-[His1,Arg3,Glu14,His17]-pramlintide (peptide)
peptide: {C20 diacid-γGlu}-HHHCRTATCATQRLAEFLHHSSNNFGPILPPTNVGSNTY-NH2
modifications: disulfide 4-9
SMILES: CC[C@H](C)[C@H](NC(=O)[C@@H]1CCCN1C(=O)CNC(=O)[C@H](Cc1ccccc1)NC(=O)[C@H](CC(N)=O)NC(=O)[C@H](CC(N)=O)NC(=O)[C@H](CO)NC(=O)[C@H](CO)NC(=O)[C@H](Cc1c[nH]cn1)NC(=O)[C@H](Cc1c[nH]cn1)NC(=O)[C@H](CC(C)C)NC(=O)[C@H](Cc1ccccc1)NC(=O)[C@H](CCC(=O)O)NC(=O)[C@H](C)NC(=O)[C@H](CC(C)C)NC(=O)[C@H](CCCNC(=N)N)NC(=O)[C@H](CCC(N)=O)NC(=O)[C@@H](NC(=O)[C@H](C)NC(=O)[C@@H]1CSSC[C@H](NC(=O)[C@H](Cc2c[nH]cn2)NC(=O)[C@H](Cc2c[nH]cn2)NC(=O)[C@H](Cc2c[nH]cn2)NC(=O)CC[C@H](NC(=O)CCCCCCCCCCCCCCCCCCC(=O)O)C(=O)O)C(=O)N[C@@H](CCCNC(=N)N)C(=O)N[C@@H]([C@@H](C)O)C(=O)N[C@@H](C)C(=O)N[C@@H]([C@@H](C)O)C(=O)N1)[C@@H](C)O)C(=O)N[C@@H](CC(C)C)C(=O)N1CCC[C@H]1C(=O)N1CCC[C@H]1C(=O)N[C@H](C(=O)N[C@@H](CC(N)=O)C(=O)N[C@H](C(=O)NCC(=O)N[C@@H](CO)C(=O)N[C@@H](CC(N)=O)C(=O)N[C@H](C(=O)N[C@@H](Cc1ccc(O)cc1)C(N)=O)[C@@H](C)O)C(C)C)[C@@H](C)O
For B2, the “Amylin receptor human EC50” value in experiment [3] is 98.5 pM. In experiment [4], the “Amylin receptor rat EC50” value was found to be 261 pM. Also, the “CTa receptor human EC50” value in experiment [5] is 157 pM. In experiment [6], the “CTa receptor rat EC50” value was 1290 pM.
